Reference: patent US11230591

B1: 2-25 (antibody, V domains shown)
VH: QVQLVESGAEVKKPGALVKVSCKASGYTFTNYAIHWVRQASGQRLEWMGWINAGRGNTKYSQKFQGRVTITRDTSASTAYMELSSLRSEDAAVYFCARDESTGDYYYYMDVWGKGTTVTVSS
VL: SYELTQPPSVSVSPGQTASITCSGDRLDDKYASWYQQKAGQSPVLVIYQDNKRPSGIPERFSGSNSGNTATLTISGTQAMDEADYYCQAWDSDTYVFGTGTKVTVL
B2: 3-7 (antibody, V domains shown)
VH: QVQLVQSGAEVKKPGASVKVSCKTSGYTFNTYAISWVRQAPGQGLEWVGWINTYSGSTKYAQKVQGRVTMTTDTSTSTAYMELRGLRSDDTAVYYCARDGYNWGFLDFWGQGSLVTVSS
VL: DIQMTQSPSSLSASVGDRVTITCRASQGISNYLAWYQQKPGKLPKLLIYAASTLQSGVPSRFSGSGSGTDFTLTISSLQPEDVASYYCQKYNSAPLTFGPGTKVDIK
B3: 3-16 (antibody, V domains shown)
VH: QVQVVQSGAEVKKPGASVMVSCKTSGYRFTIYSIAWMRQAPGQGLEWMGSINTYNGNTKYAEKFQGRVTMSRDTSTSTAYMEVRSLGSADTAMYYCARDAENWGFFDDWGQGTLVTVSS
VL: EIVLTQSPGTVSLSPGERVTLSCRASQSVGRHLAWYQQKPGQPPRLLIYGASTRATGVPDRFSGSGSETEFTLAISSLQSEDFALYYCQQYNTWPYTFGQGTKLEIK
B4: 2-18 (antibody, V domains shown)
VH: EVQLVQSGGGLVQPGGSLRVSCAASGFSFSDHDMDWVRQAPGKGFEWVGRSRNKDYSSTTEYAASVRGRFTISRHTSEDLLYLELNTVKTEDTAVYFCARGPHHSDRSGYYGGTFDIWGQGTMVTVSS
VL: DIQMTQSPSSVSASVGDRVIITCRASQGISSWLAWYQQKPGRAPRLLIYDASTLESGVPSRFSGRGSGTEFTLTINSLQPEDFATYYCQQGNMFPLTFGGGTKVEIK
B5: 1-32 (antibody, V domains shown)
VH: QVKLVESGGGVVQPGRSLRLSCAGSGFAFDNYAMHWVRQAPGKGLEWVAVISLEGRNKYYAGPAKGRFSISRDNSRNTVHLQMNSLRPEDTAVYFCARDMRYYYDSNGHYRNRYGMDVWGQGTTVIVSS
VL: DIQMTQSPSSLSASVGDSVTITCQASQDINQFVSWYQQKPGKPPKLLIYDASNLESGVPSRFSGSGSGTHFTFTISSLQPDDIATYYCQQYENLFTFGPGTKVDIK
B6: 1-85 (antibody, V domains shown)
VH: QVHLVESGGGLVKPGRSLRLSCAASGFTFSDYYMAWIRQVPGKGLEWVSFISSSGRTIYYADSVKGRFTISRDNAKDSLYLQMHSLRAEDTAVYYCARDSYSKLVDIEAIEAFDIWGRGTMVTVSS
VL: SYELAQPPSVSVAPGKTATIACGGDNIGGKSVHWYLQKAGQAPVLVISYDSDRPSGIPERFSGSNSGNTATLTISRVEAGDEADYFCQVWDRHGDHVVFGGGTKLTVL
B7: 1-150 (antibody, V domains shown)
VH: QVQLVESGGGLVKPGGSLRLSCAASGFSFSAYYMSWIRQAPGKGLEWISYISSSGNTIYYTDSVKGRFTIARDNAKNSLYLQMNSLRAEDTGLYYCARDSYSKLADIEATEAFDVWGQGTMVAVSS
VL: SYELTQPPSVSVAPGKTARITCGGNNIGSKSVHWYQQKPGQAPVMVIYYDSDRPSGIPERFSGSNSGNTATLTISRVEAGDEADYYCQVWDSGSDRVVFGGGTKLTVL
B8: 1-125 (antibody, V domains shown)
VH: QVQLVESGGGLVKPGGSLRLSCAPAGFNFKDYYMTWIRQAPGKGLEWVSFISSSGQTIYYADSVKGRFTISRDNARNSLYLQMNSLRAEDTAVYYCARDSYSKLVDIVAIEAFDLWGQGTLVSVSS
VL: SYELTQPPSVSVAPGKMARITCGGDNIGSKSVHWYQQRPGQAPVLVIRFDTDRPSRIPERFSGSNSGNTATLAISRVEAGDEADYYCQVWDSSSARLVFGGGTKLTVL

Target: recombinant pentameric gH complex (Towne strain) (human cytomegalovirus, Towne strain) (UniProt P17176)
Sequence (P17176 30-715, one chain of several): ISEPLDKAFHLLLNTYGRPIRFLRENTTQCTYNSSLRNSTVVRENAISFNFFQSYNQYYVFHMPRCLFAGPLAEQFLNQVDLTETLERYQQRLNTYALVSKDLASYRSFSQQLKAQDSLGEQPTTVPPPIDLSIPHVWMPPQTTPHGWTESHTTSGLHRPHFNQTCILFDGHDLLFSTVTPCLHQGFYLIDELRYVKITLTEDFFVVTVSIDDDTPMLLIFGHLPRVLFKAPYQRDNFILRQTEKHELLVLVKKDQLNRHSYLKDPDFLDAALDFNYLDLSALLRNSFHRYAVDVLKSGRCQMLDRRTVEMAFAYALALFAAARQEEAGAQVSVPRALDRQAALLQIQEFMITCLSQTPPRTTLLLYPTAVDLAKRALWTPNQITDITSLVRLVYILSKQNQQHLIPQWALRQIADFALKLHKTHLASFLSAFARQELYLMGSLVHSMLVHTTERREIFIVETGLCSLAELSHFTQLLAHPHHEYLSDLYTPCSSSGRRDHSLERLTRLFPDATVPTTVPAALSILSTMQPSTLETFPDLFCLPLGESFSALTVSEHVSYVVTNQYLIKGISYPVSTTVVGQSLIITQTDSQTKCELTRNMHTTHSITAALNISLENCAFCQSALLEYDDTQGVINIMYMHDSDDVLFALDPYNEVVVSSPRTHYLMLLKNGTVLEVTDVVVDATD
Assay: BLI competition on His-pentamer; competitor (antibody 2): 1-150

| Binder | Pair-wise inhibition (%) |
| --- | --- |
| B1 | -17% |
| B2 | -6% |
| B3 | -22% |
| B4 | 12% |
| B5 | 4% |
| B6 | 117% |
| B7 | 104% |

Target: recombinant pentameric gH complex (Towne strain) (human cytomegalovirus, Towne strain) (UniProt P17176)
Assay: BLI competition on His-pentamer; competitor (antibody 2): 3-16

| Binder | Pair-wise inhibition (%) |
| --- | --- |
| B1 | 6% |
| B2 | 97% |
| B3 | 88% |
| B4 | 17% |
| B5 | 10% |
| B6 | 37% |
| B7 | 2% |

Target: recombinant pentameric gH complex (Towne strain) (human cytomegalovirus, Towne strain) (UniProt P17176)
Assay: BLI competition on His-pentamer; competitor (antibody 2): 2-18

| Binder | Pair-wise inhibition (%) |
| --- | --- |
| B1 | 87% |
| B2 | 51% |
| B3 | -17% |
| B4 | 97% |
| B5 | -1% |
| B6 | 14% |
| B7 | -10% |

Target: recombinant pentameric gH complex (Towne strain) (human cytomegalovirus, Towne strain) (UniProt P17176)
Assay: BLI competition on His-pentamer; competitor (antibody 2): 3-7

| Binder | Pair-wise inhibition (%) |
| --- | --- |
| B1 | 9% |
| B2 | 91% |
| B3 | 79% |
| B4 | 16% |
| B5 | 8% |
| B6 | 27% |
| B7 | 0% |

Target: recombinant pentameric gH complex (Towne strain) (human cytomegalovirus, Towne strain) (UniProt P17176)
Assay: BLI competition on His-pentamer; competitor (antibody 2): 2-25

| Binder | Pair-wise inhibition (%) |
| --- | --- |
| B1 | 104% |
| B2 | 44% |
| B3 | -21% |
| B4 | 117% |
| B5 | -33% |
| B6 | -4% |
| B7 | -22% |

Target: recombinant pentameric gH complex (Towne strain) (human cytomegalovirus, Towne strain) (UniProt P17176)
Assay: BLI competition on His-pentamer; competitor (antibody 2): 1-85

| Binder | Pair-wise inhibition (%) |
| --- | --- |
| B1 | 7% |
| B2 | 35% |
| B3 | 16% |
| B4 | 10% |
| B5 | 18% |
| B6 | 87% |
| B7 | 61% |

Target: recombinant pentameric gH complex (Towne strain) (human cytomegalovirus, Towne strain) (UniProt P17176)
Assay: BLI competition on His-pentamer; competitor (antibody 2): 316.2

| Binder | Pair-wise inhibition (%) |
| --- | --- |
| B1 | -1% |
| B2 | 21% |
| B3 | -7% |
| B4 | 3% |
| B5 | 78% |
| B6 | 29% |
| B7 | -22% |

Target: recombinant pentameric gH complex (Towne strain) (human cytomegalovirus, Towne strain) (UniProt P17176)
Assay: BLI competition on His-pentamer; competitor (antibody 2): 124.4

| Binder | Pair-wise inhibition (%) |
| --- | --- |
| B1 | 1% |
| B2 | 35% |
| B3 | -1% |
| B4 | -11% |
| B5 | 7% |
| B6 | 24% |
| B7 | -22% |

Target: recombinant pentameric gH complex (Towne strain) (human cytomegalovirus, Towne strain) (UniProt P17176)
Assay: BLI competition on His-pentamer; competitor (antibody 2): 3-15

| Binder | Pair-wise inhibition (%) |
| --- | --- |
| B1 | 10% |
| B2 | 102% |
| B3 | 95% |
| B4 | 15% |
| B5 | 7% |
| B6 | 33% |
| B7 | 6% |

Target: pentameric gH complex on infectious CMV (neutralization assays) (human cytomegalovirus)
Assay: cell-based or functional assay

| Binder | EC50 Neutralizing | IC50 in ARPE-19 | IC50 in MRC-5 |
| --- | --- | --- | --- |
| B1 | 0.09 ng/mL | 0.08 ng/mL | – |
| B2 | 80 ng/mL | 9.5 ng/mL | 19 ng/mL |
| B3 | 90 ng/mL | 17 ng/mL | 37 ng/mL |
| B4 | 0.9 ng/mL | 0.18 ng/mL | – |
| B5 | 20 ng/mL | 0.82 ng/mL | – |
| B6 | 0.9 ng/mL | 0.13 ng/mL | – |
| B7 | 1 ng/mL | 0.31 ng/mL | 260 ng/mL |
| B8 | 0.9 ng/mL | – | – |

Target: recombinant pentameric gH complex (Towne strain) (human cytomegalovirus, Towne strain) (UniProt P17176)
Assay: BLI competition on His-pentamer; competitor (antibody 2): 1-103

| Binder | Pair-wise inhibition (%) |
| --- | --- |
| B1 | -4% |
| B2 | 27% |
| B3 | 6% |
| B4 | 8% |
| B5 | 15% |
| B6 | 27% |
| B7 | 26% |

Target: recombinant pentameric gH complex (Towne strain) (human cytomegalovirus, Towne strain) (UniProt P17176)
Assay: BLI competition on His-pentamer; competitor (antibody 2): 1-32

| Binder | Pair-wise inhibition (%) |
| --- | --- |
| B1 | 2% |
| B2 | 10% |
| B3 | -5% |
| B4 | -1% |
| B5 | 91% |
| B6 | 16% |
| B7 | -11% |

Target: recombinant pentameric gH complex (Towne strain) (human cytomegalovirus, Towne strain) (UniProt P17176)
Assay: BLI competition on His-pentamer; competitor (antibody 2): 270.7

| Binder | Pair-wise inhibition (%) |
| --- | --- |
| B1 | -10% |
| B2 | 16% |
| B3 | -1% |
| B4 | -6% |
| B5 | 97% |
| B6 | 27% |
| B7 | -29% |

Target: recombinant pentameric gH complex (Towne strain) (human cytomegalovirus, Towne strain) (UniProt P17176)
Assay: BLI competition on His-pentamer; competitor (antibody 2): 57.4

| Binder | Pair-wise inhibition (%) |
| --- | --- |
| B1 | 15% |
| B2 | 20% |
| B3 | 11% |
| B4 | 8% |
| B5 | 57% |
| B6 | 29% |
| B7 | -19% |

Target: CMV virions
Assay: virion ELISA

| Binder | EC50 |
| --- | --- |
| B2 | 70 ng/mL |
| B3 | 100 ng/mL |
| B4 | 90 ng/mL |
| B8 | 1400 ng/mL |

Target: recombinant pentameric gH complex (Towne strain) (human cytomegalovirus, Towne strain) (UniProt P17176)
Assay: BLI competition on His-pentamer; competitor (antibody 2): 324.4

| Binder | Pair-wise inhibition (%) |
| --- | --- |
| B1 | -4% |
| B2 | 14% |
| B3 | -5% |
| B4 | -1% |
| B5 | 6% |
| B6 | 17% |
| B7 | -12% |

Target: recombinant pentameric gH complex (Towne strain) (human cytomegalovirus, Towne strain) (UniProt P17176)
Assay: BLI competition on His-pentamer; competitor (antibody 2): 70.7

| Binder | Pair-wise inhibition (%) |
| --- | --- |
| B1 | 29% |
| B2 | 38% |
| B3 | 2% |
| B4 | 6% |
| B5 | 87% |
| B6 | 36% |
| B7 | -32% |

Target: recombinant pentameric gH complex (Towne strain) (human cytomegalovirus, Towne strain) (UniProt P17176)
Assay: BLI competition on His-pentamer; competitor (antibody 2): 276.1

| Binder | Pair-wise inhibition (%) |
| --- | --- |
| B1 | -25% |
| B2 | 12% |
| B3 | 18% |
| B4 | -31% |
| B5 | -11% |
| B6 | -2% |
| B7 | -12% |
